Experiments:
ADAMTS4 (human) = ADAMTS4 (human) (UniProt O75173); assay: cell-based or functional assay
ADAMTS5 (human) = ADAMTS5 (human) (UniProt Q9UNA0); assay: cell-based or functional assay
Chain of ADAMTS5 (human) (Q9UNA0 262-622 limits assumed): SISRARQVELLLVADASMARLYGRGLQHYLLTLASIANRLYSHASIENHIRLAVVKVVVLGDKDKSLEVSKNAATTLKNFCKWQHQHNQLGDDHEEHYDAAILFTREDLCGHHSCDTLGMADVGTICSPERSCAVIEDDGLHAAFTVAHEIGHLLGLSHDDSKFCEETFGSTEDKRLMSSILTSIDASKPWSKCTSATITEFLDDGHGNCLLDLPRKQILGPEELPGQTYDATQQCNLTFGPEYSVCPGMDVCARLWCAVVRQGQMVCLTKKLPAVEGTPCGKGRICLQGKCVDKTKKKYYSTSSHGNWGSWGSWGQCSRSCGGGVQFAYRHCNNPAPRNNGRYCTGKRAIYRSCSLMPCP

Chain of ADAMTS4 (human) (O75173 213-685 limits assumed): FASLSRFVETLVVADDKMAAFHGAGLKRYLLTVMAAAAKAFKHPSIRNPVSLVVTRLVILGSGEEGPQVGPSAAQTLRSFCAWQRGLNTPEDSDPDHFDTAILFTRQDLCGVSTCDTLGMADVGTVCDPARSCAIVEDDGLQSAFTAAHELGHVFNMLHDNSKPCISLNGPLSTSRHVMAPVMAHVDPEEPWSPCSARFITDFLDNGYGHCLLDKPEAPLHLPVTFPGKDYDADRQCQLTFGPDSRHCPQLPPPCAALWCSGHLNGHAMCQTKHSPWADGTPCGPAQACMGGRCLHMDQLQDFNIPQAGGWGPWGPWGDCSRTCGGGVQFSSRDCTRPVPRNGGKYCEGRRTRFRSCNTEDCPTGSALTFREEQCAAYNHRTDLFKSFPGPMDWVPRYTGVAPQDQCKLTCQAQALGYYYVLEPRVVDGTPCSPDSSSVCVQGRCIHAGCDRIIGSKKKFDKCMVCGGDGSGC

- IC50 needed to inhibit cartilage catabolism (ADAMTS4 (human)): 3 µg/mL
- IC50, inhibition of cartilage catabolism in bovine cartilage explants (ADAMTS5 (human)): 7000 µg/mL
- IC50 needed to inhibit cartilage catabolism (ADAMTS5 (human)): 7 µg/mL
- Maximum inhibition of cartilage catabolism in bovine cartilage explants (ADAMTS5 (human)): 90%
Substance: purified human A2M (from UniProt P01023 24-1474)

Source: patent US20230250154A1
